Experiment [1] has as its target monovalent Strep-Tactin-SpyCatcherΔ. The experiment can be described thus: SPR. (In general: In SPR one partner is held on a chip, and binding of the other changes the refractive index at the surface.)
Experiment [2] addresses trivalent Strep-Tactin-SpyCatcher. The experiment can be described thus: SPR.

By Kd is commonly meant a measure of binding affinity in units of concentration.

monovalent Strep-Tactin-SpyCatcherΔ, sequence (P22629 other isoform, or with tags, fused parts or gaps mutant, chain 1 of 2): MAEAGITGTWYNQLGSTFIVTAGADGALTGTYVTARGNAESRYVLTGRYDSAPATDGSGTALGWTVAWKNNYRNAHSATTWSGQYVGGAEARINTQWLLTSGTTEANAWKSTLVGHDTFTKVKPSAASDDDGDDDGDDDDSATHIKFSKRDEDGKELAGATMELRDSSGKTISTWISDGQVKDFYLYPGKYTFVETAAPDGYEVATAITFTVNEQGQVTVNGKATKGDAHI
monovalent Strep-Tactin-SpyCatcherΔ, sequence (P22629 other isoform, or with tags, fused parts or gaps mutant, chain 2 of 2): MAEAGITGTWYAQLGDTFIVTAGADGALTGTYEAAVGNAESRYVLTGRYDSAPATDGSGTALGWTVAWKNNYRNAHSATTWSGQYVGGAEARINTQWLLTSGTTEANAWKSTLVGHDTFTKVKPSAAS
trivalent Strep-Tactin-SpyCatcher, sequence (P22629 other isoform, or with tags, fused parts or gaps, chain 1 of 2): as the sequence (P22629 other isoform, or with tags, fused parts or gaps mutant, chain 2 of 2) above, with A12N, D16S, E33V, A34T, V36R counted along it
trivalent Strep-Tactin-SpyCatcher, sequence (P22629 other isoform, or with tags, fused parts or gaps, chain 2 of 2): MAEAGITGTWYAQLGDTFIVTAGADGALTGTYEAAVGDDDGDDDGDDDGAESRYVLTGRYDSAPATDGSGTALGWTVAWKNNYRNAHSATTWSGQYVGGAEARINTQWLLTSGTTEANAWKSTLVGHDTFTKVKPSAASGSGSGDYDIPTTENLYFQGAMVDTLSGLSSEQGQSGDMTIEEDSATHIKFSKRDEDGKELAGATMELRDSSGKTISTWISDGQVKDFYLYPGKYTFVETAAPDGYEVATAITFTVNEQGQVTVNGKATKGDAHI

Substance Strep-tag II–mTFP registered a Kd in experiment [1] of 43 µM. This counts as double-digit micromolar.
For Twin-Strep-tag–mTFP fusion protein, the Kd in experiment [2] came out at 6.8 µM. That is a single-digit micromolar value.
